Reference: publication PMC5006159, “Structural basis for early-onset neurological disorders caused by mutations in human selenocysteine synthase” (Scientific Reports, 2016)

Tests used:
[1] = target: the molecule itself; experiment: SEC; S200 SEC of the soluble, purified His-tagged SepSecS samples; tetramer peak at ~70 min, 'early' peak at ~55 min; self-association
[2] = target: the molecule itself; experiment: crystal structure; holo T325S, sitting drop at +12 °C, lithium citrate and PEG 3,350; orthorhombic, half of the tetramer in the asymmetric unit
[3] = target: the molecule itself; experiment: crystal structure; binary complexes with human tRNASec, sitting drop at +12 °C, sodium cacodylate, lithium citrate, PEG 3,350; trigonal, two SepSecS dimers and one tRNASec in the asymmetric unit

B1: human O-phosphoseryl-tRNASec:selenocysteinyl-tRNASec synthase (SepSecS), wild type (enzyme)
chain: MNRESFAAGERLVSPAYVRQGCEARRSHEHLIRLLLEKGKCPENGWDESTLELFLHELAIMDSNNFLGNCGVGEREGRVASALVARRHYRFIHGIGRSGDISAVQPKAAGSSLLNKITNSLVLDIIKLAGVHTVANCFVVPMATGMSLTLCFLTLRHKRPKAKYIIWPRIDQKSCFKSMITAGFEPVVIENVLEGDELRTDLKAVEAKVQELGPDCILCIHSTTSCFAPRVPDRLEELAVICANYDIPHIVNNAYGVQSSKCMHLIQQGARVGRIDAFVQSLDKNFMVPVGGAIIAGFNDSFIQEISKMYPGRASASPSLDVLITLLSLGSNGYKKLLKERKEMFSYLSNQIKKLSEAYNERLLHTPHNPISLAMTLKTLDEHRDKAVTQLGSMLFTRQVSGARVVPLGSMQTVSGYTFRGFMSHTNNYPCAYLNAASAIGMKMQDVDLFIKRLDRCLKAVRKERSKESDDNYDKTEDVDIEEMALKLDNVLLDTYQDASS
notes: human SepSecS (SEPSECS) cloned into pQE80 with an N-terminal His-tag; PLP cofactor covalently attached to Lys284; Band at ~60 kDa on SDS-PAGE; also called WT SepSecS; WT; not shown: His6, N-terminal, kept
For B1, the “stoichiometry N” value [1] was 4.

B2: human SepSecS Thr325Ser variant (enzyme)
chain: MNRESFAAGERLVSPAYVRQGCEARRSHEHLIRLLLEKGKCPENGWDESTLELFLHELAIMDSNNFLGNCGVGEREGRVASALVARRHYRFIHGIGRSGDISAVQPKAAGSSLLNKITNSLVLDIIKLAGVHTVANCFVVPMATGMSLTLCFLTLRHKRPKAKYIIWPRIDQKSCFKSMITAGFEPVVIENVLEGDELRTDLKAVEAKVQELGPDCILCIHSTTSCFAPRVPDRLEELAVICANYDIPHIVNNAYGVQSSKCMHLIQQGARVGRIDAFVQSLDKNFMVPVGGAIIAGFNDSFIQEISKMYPGRASASPSLDVLISLLSLGSNGYKKLLKERKEMFSYLSNQIKKLSEAYNERLLHTPHNPISLAMTLKTLDEHRDKAVTQLGSMLFTRQVSGARVVPLGSMQTVSGYTFRGFMSHTNNYPCAYLNAASAIGMKMQDVDLFIKRLDRCLKAVRKERSKESDDNYDKTEDVDIEEMALKLDNVLLDTYQDASS
notes: human SepSecS (SEPSECS) in pQE80 with an N-terminal His-tag, pathogenic variant made by site-directed mutagenesis; Mutation found in patients (PCH2D); also called T325S; T325S70; source: E. coli SoluBL21(DE3), purified from the soluble fraction, S200 SEC (70 min and 55 min peaks); not shown: His6, N-terminal, kept
B2 was tested, and the “stoichiometry N” value [2] was 4.

B3: human SepSecS Tyr334Cys variant (enzyme)
chain: MNRESFAAGERLVSPAYVRQGCEARRSHEHLIRLLLEKGKCPENGWDESTLELFLHELAIMDSNNFLGNCGVGEREGRVASALVARRHYRFIHGIGRSGDISAVQPKAAGSSLLNKITNSLVLDIIKLAGVHTVANCFVVPMATGMSLTLCFLTLRHKRPKAKYIIWPRIDQKSCFKSMITAGFEPVVIENVLEGDELRTDLKAVEAKVQELGPDCILCIHSTTSCFAPRVPDRLEELAVICANYDIPHIVNNAYGVQSSKCMHLIQQGARVGRIDAFVQSLDKNFMVPVGGAIIAGFNDSFIQEISKMYPGRASASPSLDVLITLLSLGSNGCKKLLKERKEMFSYLSNQIKKLSEAYNERLLHTPHNPISLAMTLKTLDEHRDKAVTQLGSMLFTRQVSGARVVPLGSMQTVSGYTFRGFMSHTNNYPCAYLNAASAIGMKMQDVDLFIKRLDRCLKAVRKERSKESDDNYDKTEDVDIEEMALKLDNVLLDTYQDASS
notes: human SepSecS (SEPSECS) in pQE80 with an N-terminal His-tag, pathogenic variant made by site-directed mutagenesis; Mutation found in patients (PCH2D); also called Y334C; Y334C70; not shown: His6, N-terminal, kept
With B3 the “stoichiometry N” value [3] was 4.
